System: MS2 coat protein
Test: apparent KD of MS2 coat protein; designed switch direction (-1 OFF switch, 1 ON switch): 1; higher = weaker reporter binding
Summary of the method: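 Transcription of designed RNA switches on Illumina chips was done by stalled E. coli RNA polymerase. SNAP-549-labelled MS2 coat protein was then titrated in doubling steps from 0.7 or 1.5 nM to 3 µM, with steps of 0.8–1.5 h at the lowest and 10–20 min at the highest concentration. The per-design median over clusters of curve-fitted normalised fluorescence is reported as apparent KD.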

[1] = Eterna round: R95, input ligand: FMN 200 uM
[2] = Eterna round: R95, input ligand: microRNA oligo, concentration not stated
[3] = Eterna round: R95, input ligand: none
[4] = input ligand: microRNA oligo, concentration not stated

AAAAAACAUGAGGAUCACCCAUGUCAAAAGACAUGAGGAUAUGUACAGACUUCGGUCUGUACAGAAGGCAUGAAAA [salish99_ss1_r3_093] (puzzle: Same State 1)
apparent KD of MS2 coat protein [1]: 0.0322 µM
apparent KD of MS2 coat protein [2]: 0.57 µM
apparent KD of MS2 coat protein [3]: 0.528 µM

AAAAGAAACGCAGGAUAUGCACAUGAGGAUCACCCAUGUCCCACGGGCUCGACCGAGCCUGUGAAGCAGAAGGGUGUAAGAAAA [Erleusor] (Eterna round: R96, puzzle: Same State NG 2)
apparent KD of MS2 coat protein (input ligand: FMN 200 uM): 0.0541 µM
apparent KD of MS2 coat protein [4]: 0.208 µM
apparent KD of MS2 coat protein (input ligand: none): 0.0747 µM

AAAAGACAUGAGGAUCACCCAUGUAAAAACAUAGGAGGAUAUGUCAUGAAAAAAGACUUGACAGAAGGCCUUUGUC [SS1 - 49] (Eterna round: R96, puzzle: Same State 1)
apparent KD of MS2 coat protein [4]: 0.156 µM

AAAAGACAUGAGGAUCACCCAUGUAUGAAAAGUACAGGAUAUCACGAGCUAAGAAGCGAGUGAGAAGGGUGAAAAU [Sogedi] (puzzle: Same State 1)
apparent KD of MS2 coat protein [1]: 0.519 µM
apparent KD of MS2 coat protein [2]: 0.0691 µM
apparent KD of MS2 coat protein [3]: 0.109 µM

AAAAGACAUGAGGAUCACCCAUGUGAAAACAUACAAGGAUAUGUGUGGAAACCGUACUAUACAGAAGGUGUAUGUC [SS1 - 85] (Eterna round: R96, puzzle: Same State 1)
apparent KD of MS2 coat protein [4]: 0.0251 µM

AAAAUGGUAUGUUACAUGAGGAUCACCCAUGUACGGUCAUCUGAGGAUAUGGUGAUGUAGAAGAAUCAGAAGGCAGACAUUUAA [AK SSNG3-V2-26] (Eterna round: R96, puzzle: Same State NG 3)
apparent KD of MS2 coat protein (input ligand: FMN 200 uM): 0.0279 µM
apparent KD of MS2 coat protein [4]: 0.0198 µM
apparent KD of MS2 coat protein (input ligand: none): 0.0323 µM

AAAAUGUGAUGUCACAUGAGGAUCACCCAUGUGGUGACAACUAAGGAUAUAACGAACCAAGGCGAUUAGAAGGUAGGAUCACAA [AK SSNG3-V2-17] (Eterna round: R96, puzzle: Same State NG 3)
apparent KD of MS2 coat protein (input ligand: FMN 200 uM): 0.102 µM
apparent KD of MS2 coat protein [4]: 0.12 µM
apparent KD of MS2 coat protein (input ligand: none): 0.207 µM

AAACAUGAGCGAGGAUAUACAUGAGGAUCACCCGUAGAAGGCGCAUGUAAAACAACAUGAGGAUCACCCAUGUCAUGUACAUGA [Same State NG1 S1] (Eterna round: R96, puzzle: Same State NG 1)
apparent KD of MS2 coat protein (input ligand: FMN 200 uM): 0.0615 µM
apparent KD of MS2 coat protein [4]: 0.055 µM
apparent KD of MS2 coat protein (input ligand: none): 0.0669 µM

AAAGACAUGAGGAUCACCCAUGUACAGACAAACCAGUCUGCACAGGAUAUCCCGAGGAUAACUCGGGAGAAGGGUGGCCAAAAC [Onveenes] (Eterna round: R96, puzzle: Same State NG 3)
apparent KD of MS2 coat protein (input ligand: FMN 200 uM): 0.0748 µM
apparent KD of MS2 coat protein [4]: 0.0189 µM
apparent KD of MS2 coat protein (input ligand: none): 0.0335 µM

AAAGCACAUGAGGAUCACCCAUGUGGAAAUAACACAGGAUAUCUGGCCUAAGCUUAGGCGAGAGAAGGGUGACCUA [Beintivequ] (puzzle: Same State 1)
apparent KD of MS2 coat protein [2]: 0.0655 µM

AAAGGAUGAUUAUACAUGAGGAUCACCCAUGUAAGUAAUACUAAGGAUAUGUGACUUAAUUGUUUACAGAAGGUAGGUUCAUGA [AK SSNG3-V2-1.1] (Eterna round: R96, puzzle: Same State NG 3)
apparent KD of MS2 coat protein (input ligand: FMN 200 uM): 0.0588 µM
apparent KD of MS2 coat protein [4]: 0.23 µM
apparent KD of MS2 coat protein (input ligand: none): 0.117 µM

AAAGUACAUGAGGAUCACCCAUGUAAAAGACUCACAGGAUAUGCUUCUUGUGUACAAGCUGCAGAAGGGUGAAAAG [Oraes] (puzzle: Same State 1)
apparent KD of MS2 coat protein [1]: 0.0308 µM
apparent KD of MS2 coat protein [2]: 0.0559 µM
apparent KD of MS2 coat protein [3]: 0.107 µM

AAAUCAAGUAAAACAUGAGGAUCACCCAUGUGAGAAGCUUCCAAGGAUAUGGUAUGCAUGGAAACCCAGAAGGUGGUCAAAGCA [Eternabot solution 29] (Eterna round: R96, puzzle: Same State NG 3)
apparent KD of MS2 coat protein (input ligand: FMN 200 uM): 0.247 µM
apparent KD of MS2 coat protein [4]: 0.181 µM
apparent KD of MS2 coat protein (input ligand: none): 0.272 µM

AACAAUCUAUCUGAGGAUAUCAUGAAAUAAACAUGAGGAUCACCCAUGUGCAGGAAUACUGCAUAUGAGAAGGCAGAUAGAUUGA [salish99_ss2_r3_042] (puzzle: Same State 2)
apparent KD of MS2 coat protein [1]: 0.086 µM
apparent KD of MS2 coat protein [2]: 1.04 µM
apparent KD of MS2 coat protein [3]: 4.05 µM

— the supplement of paper PMC9170038
